Results taken from the nanobody polyreactivity screen of Harvey et al. (2022).

experiment: yeast display, Sf9 membrane polyspecificity reagent, FACS + sequencing; frameworks hold sequencing errors
Procedure, shortened: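 Genes from sorted yeast were amplified by colony PCR, read by MiSeq 2 × 250 sequencing and filtered on CDR length. These cells carried a synthetic nanobody library in Saccharomyces cerevisiae BJ5465 and were sorted by FACS into low and high (top ~1%) gates on anti-HA and streptavidin fluorescence. Polyreactivity is labelled according to the gate of origin.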

Sequence	polyreactivity (PSR sort gate)
QVQLVESGGGLVQAGGSLRLSCAASGYTFGINAMGWYRQAPGNERELVAAITTGGSTNYADSVKGRFTISRDNAKNTVYLQMNSLTPEDTAVYYCNASWDGWNANYWYPGAYYYWGQGTQVTVSS	low polyreactivity
QVQLVESGGGLVQAGGSLRLSCAASGYTFGKYAMGWYRQAPGKEREWVAGISSRGGSTYYADSVKGRFTISRDNAKNTVYLQMNSLKPEDTAVYYCAAVAYTGGPRKLGFNYWGQGTQVTVSS	high polyreactivity
QVQLVESGGGLVQAGGSLRLSCAASGYTFGPYAMGWYRQAPGKERELVAAITTRGGSTYYADSVKGRFTISRYNAKNTVYLQMNSLKPEDTAVYYCAAESIRSDDYWGQGTQVTVSS	high polyreactivity
QVQLVESGGGLVQAGGSLRLSCAASGYTFGYNAMGWYRQAPGKERELVATISSGGTTTYADSVKGRFTISRDNAKNTVYLQMNSLKPEDTAVYYCNVYDYPTYDYWGQGTQVTVSS	low polyreactivity
QVQLVESGGGLVQAGGSLRLSCAASGYTFGYYAMGWYRQAPGKERELVAAINWSGGSTYYADSVKGRFTISRDNAKNTVYLQMNSLKPEDTAVYYCNRRTGSYGRTPVWKGEYYYWGQGTQVTVSS	high polyreactivity
QVQLVESGGGLVQAGGSLRLSCAASGYTFGYYAMGWYRQAPGKERELVAAISWRGARTNYADSVKGRFTISRDNAKNTVYLQMNSLKPEDTAVYYCAAGYYYGYPPRDYWGQGTQVTVSS	high polyreactivity
QVQLVESGGGLVQAGGSLRLSCAASGYTFHGYAMGWYRQAPGKERELVAVITQRGGSTSYADSVKGRFTISRDNAKNTVYLQMNSLKPEDTAVYYCNADGPSTPWVDYGYWGQGTQVTVSS	low polyreactivity
QVQLVESGGGLVQAGGSLRLSCAASGYTFKRYAMGWYRQAPGKESDLVASITRRGGSTYYADSVKGRFTISRDNAKNTVNLQMNSLKPEDTAVYDCAKSIPLGYTIYDYWGQGTQVTVSS	high polyreactivity
QVQLVESGGGLVQAGGSLRLSCAASGYTFKVYAMGWYRQAPGKERELVAAIRSSGGSTYADSVKGRFTISRDNAKNTVYLQMNSLKPEDTAVYYCAKAGYVSGLYSATRYEYWGQGTQVTVSS	low polyreactivity
QVQLVESGGGLVQAGGSLRLSCAASGYTFLYYAMGWYRQAPGKEREFVAAISRSGGSTYYADSVKGRFTISRDNAKNTVYLQMNSLKPEDTAVYFCAARFRYQHQRGDYWGQGTQVTVSS	high polyreactivity
QVQLVESGGGLVQAGGSLRLSCAASGYTFNFNAMGWYRQAPGKERELVAAITWNGGRTYYADSVKGRFTISRDNAKNTVYLQMNSLKPEDTAVYYCAARSYQRPSDTRYDYWGQGTQVTVSS	high polyreactivity
QVQLVESGGGLVQAGGSLRLSCAASGYTFNYYAMGWYRQAPGKERELVAAIRSTGSTNYADSVKGRFTISRDNAKNTVYLQMKSLKPEDTAVYYCAAKIRKDYSIQGYDYWGQGSQVTVSS	high polyreactivity
QVQLVESGGGLVQAGGSLRLSCAASGYTFPLYAMGWSRQAPGKEREFVAAISKRSGTTYYADSVKGRFTISRDNAKNTVYLQMNSLKPEDTAVYYCAASNGYQAVTYDYWGQGTQVTVSS	high polyreactivity
QVQLVESGGGLVQAGGSLRLSCAASGYTFPLYAMGWYRQAPGQERELVADINIGGASTYYADSVKGRFTISRDNAKNTVYLQMNSLKPEDTAVYYSAKEYYDGYFPTFDYDYWGQGTQVTVSS	low polyreactivity
QVQLVESGGGLVQAGGSLRLSCAASGYTFPMYAMGWYRQAPGKERELVADINIGGASTYYADSVKGRFTISRDNAKNTVYLQMNSLKPEDSAVYYCAKEYYDGYFPTFDYDYWGQGTQVTVSS	low polyreactivity
QVQLVESGGGLVQAGGSLRLSCAASGYTFPYAMGWYRQAPGKERELVAAISSRGSSTYYADSVKGRFTISRDNAKNTVYLQINSLKPEDTAVYYCAAKHFVKVDYWGQGTQVTVSS	high polyreactivity
QVQLVESGGGLVQAGGSLRLSCAASGYTFQHYAMGWYRQAPGKERELVAAITRRGSGTYYADSVKGRFTSSRDNAKNTVYLQMNSLKPEDTAVYYCAAAVGHGVDYWGQGTQVTVSS	high polyreactivity
QVQLVESGGGLVQAGGSLRLSCAASGYTFRAYAMGWYRQAPGKEREFVAAISRSGGSTYYADSVKGRFTISRDNAKNTVYLQMNSLKPEDTAVYYCARRYARITPVYPPLNYWGQGSQVTVSS	high polyreactivity
QVQLVESGGGLVQAGGSLRLSCAASGYTFRGNAMGWYRQAPGKERELVAAISIGGTTYYADSVKGRFTISRDNAKNTVYLQMNSLKPVDTAVYYCARRGLAFLFDYWGQGTQVTVSS	low polyreactivity
QVQLVESGGGLVQAGGSLRLSCAASGYTFRKYAMGWYRQAPGKERELVAAITYTGGSTYYADSVKGRFTISRDNAKNTVYLQMNSLKPEDTAVYYCARRYRWGEYGYWGQGTQVTVSS	high polyreactivity
QVQLVESGGGLVQAGGSLRLSCAASGYTFRYYAMGWYRQAPGKEREFVAAITWSDSGTYYADSVKGRFTISRDNAKNTVYLQMNSLKPEDTAVYYCAAERYLSFDRYLYEYYYWGQGTQVTVSS	low polyreactivity
QVQLVESGGGLVQAGGSLRLSCAASGYTFRYYGMGWYRQAPGNERELVADINSNGVRTYYADSVKGRFTISRDNAKNTVYVQMNSLKPEDTAVYYCNKDWGRYRYDYWGQGTQVTVSS	high polyreactivity

Sequence	polyreactivity (PSR sort gate)
QVQLVESGGGLVQAGGSLRLSCAASGYTFSDNAMGWSRQAPGKERDLVAAITSGVSKYFADSVKGRFTISRDNAKNTVYLQMNSLKPEDTADYYFAKDVAVYADLYQGAPYGYWGQGTQVTVSS	low polyreactivity
QVQLVESGGGLVQAGGSLRLSCAASGYTFSDNAMGWYRPAPGKERELVAAITSGVSTYYADSVKGRFRISRDNAKNSVYLQMNSLNPEDTAVYYCAAEPDTYWYTYDYWGQGTQVTVSS	low polyreactivity
QVQLVESGGGLVQAGGSLRLSCAASGYTFSDNAMGWYRQAPGKEWELVAAISTGGSTNYADSVKGRFTISRDNAKNTVYLQMNSLKPEDTAVYYCATDAWSFGYNYVPLHYDYWGQGTQVTVSS	low polyreactivity
QVQLVESGGGLVQAGGSLRLSCAASGYTFSFYAMGWYRQAPGKERELVAAISSSDGTTYYADSEKGRFTISRDNAKNTVYLQMNSLKPEDTAVYYCNTRYVRQVVGTYTLKTRYYWGQGTQVTVSS	high polyreactivity
QVQLVESGGGLVQAGGSLRLSCAASGYTFSFYAMGWYRQATGKERELVADISRSGGSTYYADSVKGRFTISRDNAKNTVYLQMNSQKPEDTAVYYCAARWPGAYHEYGYLGQGTQVTVSS	high polyreactivity
QVQLVESGGGLVQAGGSLRLSCAASGYTFSYANAMGWYRQAPGKERELVASISSTGGRTYYADSVKGRFTISRDNAKNTVYLQMNSLKPEDTAVYYCASRYWRYGYWGQGTQVTVSS	high polyreactivity
QVQLVESGGGLVQAGGSLRLSCAASGYTFSYNAMGWYRQAPGKERELVARITRGTSTYADSVKGRFTISRDNAKNTVYLQMNSLKPEDTAVYYCAARPGSGRSYTSDYWGQGSQVTVSS	high polyreactivity
QVQLVESGGGLVQAGGSLRLSCAASGYTFSYNTMGWYRQAPGKERELVAAIRLSGGSTYYADSVKGRFTSSRDNAKNTVYLQMNSLKPEDTAVYYCAARQIITKFYTSNGVSYYYWGQGTQETVSS	high polyreactivity
QVQLVESGGGLVQAGGSLRLSCAASGYTFTGYAMGWYRQAPGKERELVAAITSIGGSTYYADSVKGRFTISRDNAKNTVYLQMNSLKPEDTAVYYCAAEGDYVYDMDYWGQGTQVTVSS	low polyreactivity
QVQLVESGGGLVQAGGSLRLSCAASGYTFTVYPMGGYRPAPGKERELVAAIRDGSSTNYADSVKGRFTISRDNAKNTVYLQMISLKPEDTAVYYCNAYSQSWNFYGDGDYWGQGTQVTVSS	low polyreactivity
QVQLVESGGGLVQAGGSLRLSCAASGYTFVLNAMGWYRQAPGKEREMVAAINLDSGNTNYADSVKGRFTISRDNAKNTVYLQMNSLKPEDTAVYYCNTDVKFGGTAYDYWGQGTQVNVSS	low polyreactivity
QVQLVESGGGLVQAGGSLRLSCAASGYTFVNYAMGWYRQAPGKEREFVAAISRSGGSTYYADSVKGRFTISRDNAKNTVYLQMNSLKPEDSAVYYCALRGYPPYKYYYWGQGTQVTVSS	high polyreactivity
QVQLVESGGGLVQAGGSLRLSCAASGYTFVRYAMGWYRQAPGKERELVAAISRSGGSTYYADSVKGRFTISRDNAKNTVYLQMNSLKPEDTAVYYCNAYPYSYYDYDYWGQGTQVTVSS	high polyreactivity
QVQLVESGGGLVQAGGSLRLSCAASGYTFWQYAMGWYRQAPGKERELVAAISGSGGRTYYADSVKGRFTISRDNAKNPVYLQMHSLKPEDTAVYYCAVGYRTPYLSRGGYWGQGTQVTVSS	high polyreactivity
QVQLVESGGGLVQAGGSLRLSCAASGYTFYANAMGWYRQAPGTEREFVASITWSGGSTYYADSVKGRFTISRDNAKNTVYLQMNSLKPEDTAVYYCAAESWFKYDYWGQGTQVTVSS	low polyreactivity
QVQLVESGGGLVQAGGSLRLSCAASGYTFYEYAMGWYRQAPGKERELGAAIRGSGGGTYYADSVKGRFTISRDNAKNTVYLQMNSLKPEDTAVYYCAVKYAYPYAGVSAIRYYYWGQGTQVTVSS	low polyreactivity
QVQLVESGGGLVQAGGSLRLSCAASGYTFYFYAMGWSRQAPGKEREFVAAIRSSGGRTYYADSVKGRFTISRDNAKNTVYLQMNSLKPVDTAVYYCAAAGYYYSVDGAGPRYDYWGQGTQVTVSS	low polyreactivity
QVQLVESGGGLVQAGGSLRLSCAASGYTFYKYAMGWYRQAPGKEREFVADITQSGGSTYYADSVKGRFTISRDNAKNTVYLEMNSLKPEDTAVYYCNAAYSYRPDPKGYDYWGQGTQVTVSS	low polyreactivity
QVQLVESGGGLVQAGGSLRLSCAASGYTFYPYAMGWYRQAPGKERELVAAISGGASTYYADSVKGRFTISRDNAKNTVYLHMNSLKPEDTAVYYCAVSVYTYVVWYVAATYDYWGQGTQVTVSS	low polyreactivity
QVQLVESGGGLVQAGGSLRLSCAASGYTFYRYAMGWYRQAPGKERELVATISRGGSTDYADSVKGRFTISRDNAKNTVYLQMNSLKPEDTAVYYCAARAFSRLTTFYYWGQGTQVTVSS	high polyreactivity
QVQLVESGGGLVQAGGSLRLSCAASGYTFYSNAMGWYRQAPGKERELVAVISRGGGTYYADSVKGRFTISRDNAKNTVYLQMNSLKPEDTAVYYCARRIGHGSRPYWLETWRYPYEYWGQGTQVTVSS	low polyreactivity
